According to the supplement of paper PMC9170038:

Experiments:
Conditions in all cases: FMN input: 0 or 200 uM; Eterna round: R93 (includes R88 designs)
MS2 coat protein [1] = assay: apparent KD of MS2 coat protein, switch ON state; designed switch direction (-1 OFF switch, 1 ON switch): 1; higher = weaker reporter binding
How it was run: (§1)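 Designed RNA switches, transcribed on-chip from Illumina sequencing clusters, were titrated with SNAP-549-labelled MS2 coat protein from 0.7 or 1.5 nM to 3 µM in twofold steps. The solution was 100 mM Tris-HCl pH 7.5, 80 mM KCl, 4 mM MgCl2, with constant ligand or without it. Apparent KD is the median over each design's normalised cluster binding-curve fits.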

MS2 coat protein [2] = assay: apparent KD of MS2 coat protein, switch OFF state (with FMN for OFF switches, without FMN for ON switches); designed switch direction (-1 OFF switch, 1 ON switch): 1; higher = weaker reporter binding
How it was run: as §1

MS2 coat protein [3] = assay: apparent KD of MS2 coat protein, switch ON state; designed switch direction (-1 OFF switch, 1 ON switch): -1; higher = weaker reporter binding
How it was run: as §1

MS2 coat protein [4] = assay: apparent KD of MS2 coat protein, switch OFF state (with FMN for OFF switches, without FMN for ON switches); designed switch direction (-1 OFF switch, 1 ON switch): -1; higher = weaker reporter binding
How it was run: as §1

Sequence | apparent KD of MS2 coat protein (MS2 coat protein [1]) [nM] | apparent KD of MS2 coat protein (MS2 coat protein [2]) [nM] | apparent KD of MS2 coat protein (MS2 coat protein [3]) [nM] | apparent KD of MS2 coat protein (MS2 coat protein [4]) [nM]
CGGAGACAUGAGGAUCACCCAUGUGAGAAGAGGCGAGGAUAUCGAAAGAAAGAAGAGAAACGAGAAGGCGCGAGAC [salish99-SS1-077] | 17.7 | 26.7 | – | –
AAAGACGUGGUGUAGGAUAUACUAAUAGUCACAUGAGGAUCACCCAUGUUCAUAUAUAUGAACGAGUAGAAGGACGACGAAAAAA [SameState2 Malc#2] | 70.4 | 95.8 | – | –
UAUCCGGCAGUGUAGGAUAUGUUGUAGUAAACAUGAGGAUCACCCAUGUGGAUUAUAUAAGAUUCACAGAAGGGCACUGCAUUGC [Laonis] | 265 | 226 | – | –
AGAAUAAAAAGAGAGGAUAUCCAUAAGAAAACAUGAGGAUCACCCAUGUGAAAGAUAAUAAGAUGGGAGAAGGCUCAAAAUAAGA [Topaz 46] | 20.3 | 49.5 | – | –
GCGGUGUAGGUACAGGAUAUGUUGCUCGUAACAUGAGGAUCACCCAUGUACCUAUGAGAUUAAAUGCAGAAGGGUGCACACCACG [Zaalaes] | 21.5 | 2.41 | – | –
AGGAAACAUGAGGAUCACCCAUGUAAAAAUAUGGGAGGAUAUACAAACAAGAAAGUCAAAGUAGAAGGCCUAAAAG [Garnet 6] | 63.7 | 152 | – | –
AGGAGACAUGAGGAUCACCCAUGUGCACGUGGAGGAGGAUAUGCUAGUAGAAGAUAGAAAGCAGAAGGCCUAAGAA [mod of top voted: #2] | 44.3 | 37.2 | – | –
AGGAAACAUGAGGAUCACCCAUGUAAGAUAAACUUAGGAUAUGCGAAAAGAAACAAAGAAGCAGAAGGAGGGAGAA [75%, Ex5 sub 1, 2] | 16.5 | 33 | – | –
AAAAGACAUGAGGAUCACCCAUGUAAAAACGUAGGAGGAUAUGUCGUGAAAAAAGACUUGACAGAAGGCCUGUGUC [SS1 - 35] | 25.9 | 39 | – | –
AAAAGACAUGAGGAUCACCCAUGUAAAAACAUAGGAGGAUAUGUCUGGAAACCAGACUGGACAGAAGGCCUUUGUC [SS1 - 63] | 24.8 | 29.4 | – | –
AGAAAACAUGAGGAUCACCCAUGUAGAAAUAUGGGAGGAUAUACGAAGACGAAAGUCGAAGUAGAAGGCCUAAAGA [Mat - Same State 1 - Meechl mod - D126] | 23.2 | 50.8 | – | –
AAAAGACAUGAGGAUCACCCAUGUCAAGACGUAGGAGGAUAUGUCUUGAAAAAAGACUUGACAGAAGGCCUGUGUC [SS1 - 55] | 14.9 | 18.1 | – | –
AAAAAACAUGAGGAUCACCCAUGUAUGAUAACAUCAGGAUAUUGGCUUGACUAUGUCUUACAAGAAGGGAUGAAAA [Same State 1.3e (Same State 1 - Omei 2 )] | 28.3 | 48.6 | – | –
GCAAAACAUGAGGAUCACCCAUGUGAAAAGAAUGUAGGAUAUGGGCUCAUAAAUAGCAGCCCAGAAGGGCGAAGAA [Onmace] | 29.6 | 26.2 | – | –
AACAAUCUAUCUGAGGAUAUCAUGUCAAAGACAUGAGGAUCACCCAUGUGCAGGAAAACUGCAUAUGAGAAGGCAGAUAGAUUGA [SS2 :P - 599] | 217 | 130 | – | –
UACAGACAUGAGGAUCACCCAUGUAGAAUUAUGGGAGGAUAUACAAAGACGAGAGUCAGAGUAGAAGGCCUAGGAC [salish99-ss1-166] | 27.3 | 62.7 | – | –
AAGCAACAUGAGGAUCACCCAUGUAGCAGGGUCAGAGGAUAUUUGAUCUUGGCAAGGGUUAAAGAAGGUUGAUAAA [Rianqu] | 264 | 140 | – | –
GAGGACCUAGGAUAGGAUAUGUGAAUAAUUACAUGAGGAUCACCCAUGUCCAUUUAUAUGGGAACAUAGAAGGGUUUUGGUUAUC [SameState2 Malc#39] | 232 | 180 | – | –
UGAAGACAUGAGGAUCACCCAUGUGGGAAUAUGGGAGGAUAUACAAAGACGAGAGUCAGAGUAGAAGGCCUAGGAU [salish99-ss1-96] | 36.7 | 154 | – | –

Sequence | apparent KD of MS2 coat protein (MS2 coat protein [1]) [nM] | apparent KD of MS2 coat protein (MS2 coat protein [2]) [nM] | apparent KD of MS2 coat protein (MS2 coat protein [3]) [nM] | apparent KD of MS2 coat protein (MS2 coat protein [4]) [nM]
GGAGCCGACACUGAGGAUAUUCAUAUUAAAACAUGAGGAUCACCCAUGUAGGCCAGAAGGCCUUGGGAGAAGGCAGGCCGGCUCG [Inxebi] | 19.3 | 256 | – | –
AGAAAGAAAAGAGAGGAUAUCUAAAAGAAAACAUGAGGAUCACCCAUGUAAAAGAAAAGAAAAUGGGAGAAGGCUCAUGAGAAAG [JL Skelter Mod 7 In the Red] | 101 | 59.7 | – | –
ACAAACAAAAAAGAGGAUAUCCAAAACAAAACAUGAGGAUCACCCAUGUAAAAGAAAAGAAAAUGGGAGAAGGCUUACAACAAAC [SS2 M 22] | 19.4 | 28.2 | – | –
GGUACUACAGAUCAGGAUAUGUUUGGGUAAACAUGAGGAUCACCCAUGUGUGCCCGAUACACAGCACAGAAGGGAUAACGUGGGA [Ditia] | 16.2 | 21.4 | – | –
AAUAUAUUAUCUGAGGAUAUCAUAGGAAAAACAUGAGGAUCACCCAUGUGGGAAACCUGGUCGGGUGAGAAGGUGGAUAAUAUAU [Samwise Clockwise 33 - Jieux - Same State 2] | 58.7 | 341 | – | –
GGAAGACAUGAGGAUCACCCAUGUGGGAAUAUGGGAGGAUAUACAAAGACGAGAGUCAGAGUAGAAGGCCUAGGCC [salish99-ss1-103(!)] | 54.3 | 126 | – | –
AAAUAAAUGACUAAGGAUAUAUCGAAGAAGACAUGAGGAUCACCCAUGUAAUAAUAAAAAGGGUGGUAGAAGGUAGUCAACAAAC [Mod 6 of Pariah 4 by Hyphema in Round 1] | 156 | 233 | – | –
AAAAUAUAAAGGAAGGAUAUCCAAAGGACUACAUGAGGAUCACCCAUGUAAAGAAAGAAUAAAUGGGAGAAGGUCCAAAUAAUAA [Designing denovo 32] | 44 | 180 | – | –
AAAAUACAUGAGGAUCACCCAUGUGAAAAUAUGGGAGGAUAUACAAACACGAAAGUGAAAGUAGAAGGCCUAAAAA [SS! MT 15] | 51.6 | 231 | – | –
AGCGAGUAAGGAUAUCGGAAAGGACACGAAAGUGACAAAGACGAGAAGGUACAUGAGGAUCACCCAUGUAAAAA [milkweed 25] | – | – | 26.8 | 17.8
ACAAGGUCAGGAUAUACAUGAGGAUCACCCAUGUGAGAAUUCGAUUAAAACACACAAAGUAGAAGGGACCAGGA [Ruby 83] | – | – | 22 | 33.6
AACAAGUCAGGAUAUCAUACUAAUCACUUGCUUUAAAUGUAUGAGAAGGGACAUGAGGAUCACCCAUGUAAAGA [Exclusion4-cac3] | – | – | 46.8 | 34.1
AACAUGUGAGGAUAUUUAAGAAAAGAAAAGAAAGAAAAGAAAAAGAAGGCACAUGAGGAUCACCCAUGUAAGAA [EteRNA is fun!] | – | – | 24.1 | 26
AAAAAGGCAGGAUAUACAUGAGGAUCACCCAUGUGCAAAAAAAAAAAAAAAAAAACAUGUAGAAGGGCCGAAAA [Skynet (1?)] | – | – | 45.2 | 86.3
AAAAAGUAAGGAUAUACAAGAGAAAACACAAAAAAAAAAAAACAUGAGGAUCACCCAUGUAGAAGGUACAAAAA [Diamond 82] | – | – | 27.5 | 24.6
CGUUUGUUAGGAUAUAGCCACAUUACGAAUAAGUAGUGUGGCUAGAAGGAACAUGAGGAUCACCCAUGUAUGGG [Exclusion 4.3 (AU closing FMN)] | – | – | 110 | 78.5
AACAGGUUAGGAUAUAUCCAACAAAUAAAAAAAAUAUAAGGAUAGAAGGAACAUGAGGAUCACCCAUGUUAACA [May 30] | – | – | 20.8 | 17.1
AGAAAGUCAGGAUAUGCAGAUAAAAAAACGAAAAAAAAUCUGCAGAAGGGACAUGAGGAUCACCCAUGUAAAGA [Mat - Exclusion 4 - Mayanna - D111] | – | – | 52.3 | 40.2
ACAAGCCUAGGAUAUACAUGAGGAUCACCCAUGUGAAAGAACCGGUGACUCCUGGAAAGUAGAAGGAGGAAUCG [Biatla] | – | – | 44.7 | 40.1
